Source: the supplement of paper PMC10126150
± gives the standard deviation of the averaged measurements.

Test system: ATP
Test: switch fluorescence ratio, 500 uM ATP over buffer (Cy3 cluster intensity, sum of 5 cycles each) (fold (ratio)); higher = stronger signal-on switching upon ATP binding; sequences stand for … in TCGTCGGCAGCGTCAGATGTGTATAAGAGACAGTTTTTTTTTTTTTTTTTTTTTTTTT…TC
Conditions: aptamer strand: ATP DNA aptamer (quencher-CACCTGGGGGAGTATTGCGGAGGAAGG + anchor), 100 nM annealed; ATP concentration: 500 uM
Summary of the method: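 Cy3-labelled switching-strand clusters on a modified Illumina MiSeq flow-cell were annealed to 100 nM quencher-labelled ATP aptamer, imaged in selection buffer, then imaged after 15 min with 500 uM ATP at 22 °C. Five buffer/ATP cycles ran, with NaOH stripping and re-annealing between them. The fluorescence ratio is summed target-cycle over summed buffer-cycle Cy3 intensity per cluster, averaged per switch-domain sequence. Clusters outside 100-1000 RFU were excluded.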
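Also: ATP exposure 15 min at 22 °C before imaging.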

| Sequence | switch fluorescence ratio |
| --- | --- |
| CCTGTATCTT | 1.03 ± 0.018 |
| CCATTAATAG | 1.04 ± 0.057 |
| CAGCCTTGGT | 1.04 ± 0.11 |
| TTCCCCGGCA | 1.28 ± 0.35 |
| TACTATGGTC | 1.01 ± 0.07 |
| TGGCAGAAGG | 1.06 ± 0.076 |
| TTTTTGGAAT | 1 ± 0.028 |
| TTGATTTTGA | 1.04 ± 0.037 |
| GGGGCTTAGT | 1.03 ± 0.017 |
| ATGATGTATG | 0.989 ± 0.027 |
| GCTAGCCAAA | 0.998 ± 0.011 |
| TGGGGTCGGC | 0.987 ± 0.021 |
| TCGGAAAATA | 1.01 ± 0.026 |
| TTGGGTTGGC | 1.02 ± 0.043 |
| ACCATCGTAG | 1.0191 ± 0.00047 |
| CGCCATATTT | 1.03 ± 0.016 |
| TTTCGGAAAG | 0.967 ± 0.042 |
| GTGTTAGCTA | 1 ± 0.011 |
| ATGCATGGAG | 1.03 ± 0.016 |
| GGTATAGGGA | 1.01 ± 0.026 |
| GGGGGCCGGC | 1.028 ± 0.0031 |
| AATTTGGTG | 1.026 ± 0.0011 |
| CAGGAGCTGT | 1.2 ± 0.034 |
| ACCGGCGTTT | 1.05 ± 0.051 |
| GGGGTATGCT | 1.03 ± 0.032 |

| Sequence | switch fluorescence ratio |
| --- | --- |
| GTGGGGTCGT | 0.926 ± 0.045 |
| TTAGTCCGTG | 1.01 ± 0.036 |
| CTTGTAGGTG | 1.36 ± 0.48 |
| CAATATATAC | 1.13 ± 0.043 |
| ACCTATGGGA | 1 ± 0.028 |
| ACGTGGTGTG | 1.015 ± 0.0075 |
| ACAGAATAGG | 1.018 ± 0.0027 |
| ACGATGAACG | 1.04 ± 0.021 |
| GCGTGTGGGG | 1.02 ± 0.021 |
| TTTGATGGGG | 0.988 ± 0.025 |
| TGCAGCTGGA | 0.977 ± 0.022 |
| CACTACGGCC | 1.04 ± 0.043 |
| ACGGGCCGGG | 1.02 ± 0.12 |
| ATAGAGGCTG | 1.04 ± 0.064 |
| TGTTACGGCA | 1.08 ± 0.041 |
| AAGCTTTTCA | 1.03 ± 0.041 |
| ACAGTCGGTG | 1.028 ± 0.0066 |
| GTGTTGGTTT | 0.986 ± 0.024 |
| ATCCAGGTAG | 1.75 ± 0.076 |
| AGTTGTAGTT | 0.972 ± 0.041 |
| CATCCGTCCG | 1.353 ± 0.0037 |
| TTTGATTGCG | 1 ± 0.011 |
| ATAAGTTTTT | 1 ± 0.023 |
| AGTGTCTCCT | 1.02 ± 0.058 |
| CGTTATAAAG | 0.9811 ± 0.0012 |

| Sequence | switch fluorescence ratio |
| --- | --- |
| GACGTATATT | 1.08 ± 0.0067 |
| GGGGTTGTCA | 0.99 ± 0.058 |
| AGCCATAAGG | 1.012 ± 0.0061 |
| TGGGGGAAGA | 1.03 ± 0.069 |
| GGTATATTAA | 1.02 ± 0.023 |
| CCGGTATGGT | 1.012 ± 0.0077 |
| TAGTTAGTTT | 1.02 ± 0.029 |
| GTGCGCCGGT | 1.02 ± 0.036 |
| TCGATGGATG | 1.025 ± 0.0058 |
| TTTGGACGCA | 1.12 ± 0.12 |
| TGAAGTTTGC | 0.999 ± 0.01 |
| TGACAGTTAT | 1.06 ± 0.038 |
| AGTAGTGCGT | 0.997 ± 0.04 |
| TTTAATTAAG | 0.985 ± 0.055 |
| CAGGGCTATT | 1.01 ± 0.037 |
| GAACGGAATT | 1.19 ± 0.023 |
| GGTATGCAGG | 0.985 ± 0.026 |
| TCACGTGTCA | 0.9999 ± 0.0089 |
| CGGGGGTTAT | 1.03 ± 0.063 |
| TTCATCGCTG | 1.04 ± 0.053 |
| GGGCAATCGT | 1.021 ± 0.0063 |
| TGTTGGGCAG | 0.9634 ± 0.0089 |
| GATTTAAACA | 1.02 ± 0.029 |
| CACCCTACTA | 1.29 ± 0.018 |
| GGGGGCGGGA | 1.02 ± 0.059 |

| Sequence | switch fluorescence ratio |
| --- | --- |
| TGGGTACACG | 1 ± 0.0019 |
| ATAGTATGGG | 0.99 ± 0.046 |
| GGAATAATGT | 1.03 ± 0.061 |
| TTCCGGGCGT | 1.12 ± 0.058 |
| AGATCATGAG | 0.9708 ± 0.0079 |
| AACTGTTGGG | 0.9928 ± 0.002 |
| CGAATGGGGG | 1 ± 0.029 |
| GGGGACATGG | 1.07 ± 0.11 |
| GGGTGTGGGG | 0.989 ± 0.046 |
| TTTGTAATGG | 1.08 ± 0.14 |
| GTGGACCGGA | 1.06 ± 0.012 |
| CTTTTGTAAT | 1.01 ± 0.014 |
| TGTCCGCCTG | 1.07 ± 0.019 |
| GCTATGAACC | 1.0349 ± 0.0008 |
| TCAGTCATCT | 1 ± 0.013 |
| CAAGAACGGT | 0.969 ± 0.0077 |
| GCGTTTAGGG | 1.03 ± 0.054 |
| GCTGATGGTG | 0.989 ± 0.02 |
| GCCTTTTGCC | 1.044 ± 0.0094 |
| CATGGGCCGT | 1.02 ± 0.035 |
| AGGTGAGGGC | 1.02 ± 0.015 |
| AAAGGATTTG | 0.97 ± 0.0034 |
| TAGGGTTTGT | 0.989 ± 0.031 |
| TATGGTAGC | 0.989 ± 0.048 |
| TAAAAAAAGG | 1.05 ± 0.067 |
